Measurements reported in article PMC9697344.

Target: human epidermal growth factor receptor expressed on M3-EGFR cells (human) (UniProt P00533)

Work on “DTox-HMP-NLS-EGF modular nanotransporter” yielded an average fluorescence of M3-EGFR cell nuclei (anti-His-Tag Alexa Fluor 647) after 2 h incubation with 300 nM MNT (Relative units (RU)) of 44.3.
Substance “EGF-DTox-HMP-NLS-[Nrf2-peptide] modular nanotransporter” has an average fluorescence of M3-EGFR cell nuclei (anti-His-Tag Alexa Fluor 647) after 2 h incubation with 300 nM MNT (Relative units (RU)) of 44.7.
